Reference: US20240043504A1 (published 2024)
Substitutions are numbered along the chain they refer to. Where “and” joins values, the source holds several entries; their conditions need not be identical. Equal values may be shown once.

B1: mAb10934 (antibody, V domains shown)
VH: not shown
VL: DIQMTQSPSSLSASVGDRVTITCQASQDIWNYINWYQQKPGKAPKLLIYDASNLKTGVPSRFSGSGSGTDFTFTISSLQPEDIATYYCQQHDDLPPTFGQGTKVEIKR
B2: mAb10936 (antibody, V domains shown)
VH: QVQLVESGGGVVQPGRSLRLSCAASGFTFRNYGMHWVRQAPGKGLEWVSVIWYDGSNRYYADSVKGRFTISRDTSKNTLYLQMNSLRAEDTAVYYCARDPPITGTTGGDAFDIWGQGTMVTVSS
VL: not shown
B3: mAb10920 (antibody, V domains shown)
VH: QVQLVESGGGVVQPGRSLRLSCAASGFTFSYYGMHWVRQAPGKGLEWVAVIWYDGSNKFYADSVKGRFTISRDNSKNTLYLQMNSLRAEDTAVYYCAAARPGYYYGMDVWGQGTTVTVSS
VL: DIQMTQSPSSLSASVGDRVTITCRASQGISNYLAWFQQKPGKAPNSLIYAASSLQRGVPSKFSGSGSGTDFTLTISSLQPEDFATYYCQQYNSYPRTFGQGTKVEIKR
B4: mAb10954 (antibody, V domains shown)
VH: EVQLVESGGGLVQPGGSLRLSCAASGITVSSNYMSWVRQAPGKGLEWVSLIYSGGSTYYADSVKGRFTISRDNSKNTLYLQMNSLRVEDTAVYYCARDHGMAAAGYNYWGQGTLVTVSS
VL: B1 VL with W30N, N31K, I33L, K55E, S76N, I83F, Y87F, H91Y, D93N, T97A
B5: mAb10933 (antibody, V domains shown)
VH: QVQLVESGGGLVKPGGSLRLSCAASGFTFSDYYMSWIRQAPGKGLEWVSYITYSGSTIYYADSVKGRFTISRDNAKSSLYLQMNSLRAEDTAVYYCARDRGTTMVPFDYWGQGTLVTVSS
VL: B1 VL with W30T, I33L, D50A, K55E, S77G, H91Y, D93N, P96L, Q100G
B6: mAb10984 (antibody, V domains shown)
VH: EVQLVESGGGLVQPGGSLRLSCAASGLTVNRNYMSWVRQAPGKGLEWVSLIYSGGSTYYADSVKGRFTISRDNSKNTLYLQMNSLRLEDTAVYYCARGELGIPYGMDVWGQGTTVTVSS
VL: QSVLTQPPSVSAAPGQKVTISCSGSSSNIGNNYVSWYQQLPGTAPKLLIYDNNKRPSGIPDRFSGSKSGTSATLGITGLQTGDEADYYCGTWDSSLSAGVFGGGTKLTVLG
B7: mAb10986 (antibody, V domains shown)
VH: EVQLVESGGGLVQPGGSLRLSCAASEFTVSSNYMSWVRQAPGKGLEWVSVIYSGGSTFYADSVKGRFTISRDNSKNTLYLQMNSLRAEDTAVYYCARALPYGDLHFDYWGQGTLVTVSS
VL: QSVLTQPPSVSGAPGQRVTISCTGSSSNIGTGYDVHWYQQLPGTAPKLLIYGNTNRPSGVPDRFSGSKSGTSASLAITGLQAEDEADYYCQSYDSSLSDSYVFGTGTKVTVLG
B8: mAb10987 (antibody, V domains shown)
VH: QVQLVESGGGVVQPGRSLRLSCAASGFTFSNYAMYWVRQAPGKGLEWVAVISYDGSNKYYADSVKGRFTISRDNSKNTLYLQMNSLRTEDTAVYYCASGSDYGDYLLVYWGQGTLVTVSS
VL: QSALTQPASVSGSPGQSITISCTGTSSDVGGYNYVSWYQQHPGKAPKLMIYDVSKRPSGVSNRFSGSKSGNTASLTISGLQSEDEADYYCNSLTSISTWVFGGGTKLTVLG
B9: mAb10989 (antibody, V domains shown)
VH: QVQLVQSGAEVKKPGASVKVSCKASGYIFTGYYMHWVRQAPGQGLEWMGWINPNSGGANYAQKFQGRVTLTRDTSITTVYMELSRLRFDDTAVYYCARGSRYDWNQNNWFDPWGQGTLVTVSS
VL: B8 VL with G31T, Y51F, K55N, N62D, S82A, N91S, L93F, S95T, I96S, W99V
B10: mAb10934 (antibody, V domains shown)
VH: not shown
VL: B1 VL

Assays:
[1] = target: SARS-CoV-2 spike protein (S-wt, Wuhan-Hu-1, NCBI Accession Number MN908947.3) on VSV pseudoparticles (SARS-CoV-2, UniProt P0DTC2 14-1273); test: cell-based or functional assay
[2] = target: full-length SARS-CoV-2 spike protein (amino acids M1-T1273 of accession number YP_009724390.1) on Ju (SARS-CoV-2, UniProt P0DTC2 14-1273); test: cell-based or functional assay
[3] = target: receptor binding domain (RBD) portion of the SARS-CoV-2 Spike protein (amino acids Arg319-Phe541) ex (SARS-CoV-2)

Row | Binder | IC50 (M), neutralization [1] [M] | ADCP EC50 [M], Jurkat/hCD20/SARS-CoV-2 Spike cells [2] [M] | ADCP Max (% ADCP), Jurkat/hCD20/SARS-CoV-2 Spike cells [2] [%] | IC50 [3]
1 | B1 | 5.44e-11 |  |  | 
2 | B2 | 1.11e-10 |  |  | 
3 | B3 | 2.64e-10 |  |  | 
4 | B4 | 9.22e-11 |  |  | 
5 | B5 | 4.28e-11 |  |  | 
6 | B6 | 9.73e-11 |  |  | 
7 | B7 | 9.91e-11 |  |  | 
8 | B8 |  | 6.33e-12 | 56.7 | 
9 | B9 |  | 4.86e-12 | 56 | 0.0591 nM and 0.0428 nM
10 | B10 |  | 2.72e-12 | 40.1 | 0.066 nM and 0.0597 nM
